{"source": "patent US20150299726A1", "about": "“AHAS MUTANTS” (BASF PLANT SCIENCE GMBH, priority 2007, published 2015)", "molecules": {"B1": {"name": "AE7: E. coli expression plasmid, Arabidopsis AHASL wild type (protein, UniProt P17597 56-670, looked up)", "Acetolactate synthase, …": "SSSPSSISAVLNTTTNVTTTPSPTKPTKPETFISRFAPDQPRKGADILVEALERQGVETVFAYPGGASMEIHQALTRSSSIRNVLPRHEQGGVFAAEGYARSSGKPGICIATSGPGATNLVSGLADALLDSVPLVAITGQVPRRMIGTDAFQETPIVEVTRSITKHNYLVMDVEDIPRIIEEAFFLATSGRPGPVLVDVPKDIQQQLAIPNWEQAMRLPGYMSRMPKPPEDSHLEQIVRLISESKKPVLYVGGGCLNSSDELGRFVELTGIPVASTLMGLGSYPCDDELSLHMLGMHGTVYANYAVEHSDLLLAFGVRFDDRVTGKLEAFASRAKIVHIDIDSAEIGKNKTPHVSVCGDVKLALQGMNKVLENRAEELKLDFGVWRNELNVQKQKFPLSFKTFGEAIPPQYAIKVLDELTDGKAIISTGVGQHQMWAAQFYNYKKPRQWLSSGGLGAMGFGLPAAIGASVANPDAIVVDIDGDGSFIMNVQELATIRVENLPVKVLLLNNQHLGMVMQWEDRFYKANRAHTFLGDPAQEDEIFPNMLLFAAACGIPAARVTKKADLREAIQTMLDTPGPYLLDVICPHQEHVLPMIPSGGTFNDVITEGDGRIKY"}}, "test_system": "AHAS minus E. coli", "assay": "E. coli complementation assay, Arabidopsis AHASL mutants (AE plasmids) with imazethapyr", "type": "cell-based", "conditions": "colony size scored visually in the presence of imazethapyr", "from_the_text": "Vectors AE10 through AE24 were made as follows. The wild type Arabidopsis thaliana AHAS large subunit gene was amplified under mutagenic conditions using the Genemorph II random mutagenesis kit (Stratagene, La Jolla, Calif.), resulting in randomly mutagenized amplified DNA fragments of this gene. This mutant DNA was then cloned back into AE7, replacing the wild type A. thaliana large subunit gene (between the unique SacII and AgeI sites on AE7) with the mutagenized forms. This DNA was transformed into E. coli strain TOP10 and selected on LB agar medium in such a fashion as to have a large number of unique transformants, each with independent, mutagenized AHAS genes. These colonies were scraped together and plasmid DNA was prepared from this entire primary library. This DNA was transformed into AHAS minus E. coli and again selected on LB agar media with carbenicillin. Plasmid positive colonies from this step were replica plated using velveteen onto minimal agar medium without branched chain amino acids and containing 30-micromolar imazethapyr.\nThe DNA sequence of the A. thaliana AHAS large subunit gene was determined for each of the growth positive colonies. […] Because the AHAS function and imidazolinone tolerance screen was on a secondary library, replicates of the same mutations were found, as determined by DNA sequence analysis. […]"}
{"molecule": "B1", "values": [{"measurement": "E. coli Imazethapyr Tolerance Score", "result": "− (IN)"}]}
